This note sets out measurements from IntAct's records for PubMed 26918958.

B1: Latent-transforming growth factor beta-binding protein 4 (Homo sapiens), Q8N2S1-1 (parent)
chain: MPRPGTSGRRPLLLVLLLPLFAAATSAASPSPSPSQVVEVPGVPSRPASVAVCRCCPGQTSRRSRCIRAFCRVRSCQPKKCAGPQRCLNPVPAVPSPSPSVRKRQVSLNWQPLTLQEARALLKRRRPRGPGGRGLLRRRPPQRAPAGKAPVLCPLICHNGGVCVKPDRCLCPPDFAGKFCQLHSSGARPPAPAVPGLTRSVYTMPLANHRDDEHGVASMVSVHVEHPQEASVVVHQVERVSGPWEEADAEAVARAEAAARAEAAAPYTVLAQSAPREDGYSDASGFGYCFRELRGGECASPLPGLRTQEVCCRGAGLAWGVHDCQLCSERLGNSERVSAPDGPCPTGFERVNGSCEDVDECATGGRCQHGECANTRGGYTCVCPDGFLLDSSRSSCISQHVISEAKGPCFRVLRDGGCSLPILRNITKQICCCSRVGKAWGRGCQLCPPFGSEGFREICPAGPGYHYSASDLRYNTRPLGQEPPRVSLSQPRTLPATSRPSAGFLPTHRLEPRPEPRPDPRPGPELPLPSIPAWTGPEIPESGPSSGMCQRNPQVCGPGRCISRPSGYTCACDSGFRLSPQGTRCIDVDECRRVPPPCAPGRCENSPGSFRCVCGPGFRAGPRAAECLDVDECHRVPPPCDLGRCENTPGSFLCVCPAGYQAAPHGASCQDVDECTQSPGLCGRGACKNLPGSFRCVCPAGFRGSACEEDVDECAQEPPPCGPGRCDNTAGSFHCACPAGFRSRGPGAPCQDVDECARSPPPCTYGRCENTEGSFQCVCPMGFQPNTAGSECEDVDECENHLACPGQECVNSPGSFQCRTCPSGHHLHRGRCTDVDECSSGAPPCGPHGHCTNTEGSFRCSCAPGYRAPSGRPGPCADVNECLEGDFCFPHGECLNTDGSFACTCAPGYRPGPRGASCLDVDECSEEDLCQSGICTNTDGSFECICPPGHRAGPDLASCLDVDECRERGPALCGSQRCENSPGSYRCVRDCDPGYHAGPEGTCDDVDECQEYGPEICGAQRCENTPGSYRCTPACDPGYQPTPGGGCQDVDECRNRSFCGAHAVCQNLPGSFQCLCDQGYEGARDGRHCVDVNECETLQGVCGAALCENVEGSFLCVCPNSPEEFDPMTGRCVPPRTSAGTFPGSQPQAPASPVLPARPPPPPLPRRPSTPRQGPVGSGRRECYFDTAAPDACDNILARNVTWQECCCTVGEGWGSGCRIQQCPGTETAEYQSLCPHGRGYLAPSGDLSLRRDVDECQLFRDQVCKSGVCVNTAPGYSCYCSNGYYYHTQRLECIDNDECADEEPACEGGRCVNTVGSYHCTCEPPLVLDGSQRRCVSNESQSLDDNLGVCWQEVGADLVCSHPRLDRQATYTECCCLYGEAWGMDCALCPAQDSDDFEALCNVLRPPAYSPPRPGGFGLPYEYGPDLGPPYQGLPYGPELYPPPALPYDPYPPPPGPFARREAPYGAPRFDMPDFEDDGGPYGESEAPAPPGPGTRWPYRSRDTRRSFPEPEEPPEGGSYAGSLAEPYEELEAEECGILDGCTNGRCVRVPEGFTCRCFDGYRLDMTRMACVDINECDEAEAASPLCVNARCLNTDGSFRCICRPGFAPTHQPHHCAPARPRA

This assay covers variants of B1. The settings on record: with tgfb1_human TGFB1, P01137.
Sequence of tgfb1_human TGFB1, P01137 (P01137 whole entry): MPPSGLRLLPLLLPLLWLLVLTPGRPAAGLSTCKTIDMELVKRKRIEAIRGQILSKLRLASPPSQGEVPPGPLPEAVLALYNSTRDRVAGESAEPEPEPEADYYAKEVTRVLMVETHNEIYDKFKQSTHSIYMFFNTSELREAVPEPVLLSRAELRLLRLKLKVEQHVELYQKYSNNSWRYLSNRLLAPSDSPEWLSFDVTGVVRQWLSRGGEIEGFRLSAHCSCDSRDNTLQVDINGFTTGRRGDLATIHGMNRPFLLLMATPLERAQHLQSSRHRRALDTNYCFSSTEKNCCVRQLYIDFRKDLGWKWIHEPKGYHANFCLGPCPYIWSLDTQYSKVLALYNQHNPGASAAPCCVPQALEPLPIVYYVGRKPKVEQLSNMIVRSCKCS
T1141M: the “effect of a mutation on the interaction” value is listed as “with no effect”.

For V194I;T787A;T820A;T1141M, the “effect of a mutation on the interaction” value is listed as “with no effect”.
